A short description of data set [1]: Circular dichroism (CD) of peptides. The data set is classed as physicochemical. The settings on record: 20 mM Sodium Cacodylate; for Ellipticity ratio (222 nm/208 nm) / Ellipticity 208 nm / Ellipticity 222 nm: 1.25 mg/mL; for Ellipticity 208 nm / Ellipticity 222 nm: CD data given as [θ]M×10^−3; for wavelength Minimum of CD profile: 5.0 mg/mL. A general note: CD spectra are sensitive to the conformation of chiral molecules.

Another data set concerns the target T1, elastin (Bos taurus, UniProt P04985).
T1 construct: purchased Sigma-Aldrich
T1 sequence (P04985 27-747): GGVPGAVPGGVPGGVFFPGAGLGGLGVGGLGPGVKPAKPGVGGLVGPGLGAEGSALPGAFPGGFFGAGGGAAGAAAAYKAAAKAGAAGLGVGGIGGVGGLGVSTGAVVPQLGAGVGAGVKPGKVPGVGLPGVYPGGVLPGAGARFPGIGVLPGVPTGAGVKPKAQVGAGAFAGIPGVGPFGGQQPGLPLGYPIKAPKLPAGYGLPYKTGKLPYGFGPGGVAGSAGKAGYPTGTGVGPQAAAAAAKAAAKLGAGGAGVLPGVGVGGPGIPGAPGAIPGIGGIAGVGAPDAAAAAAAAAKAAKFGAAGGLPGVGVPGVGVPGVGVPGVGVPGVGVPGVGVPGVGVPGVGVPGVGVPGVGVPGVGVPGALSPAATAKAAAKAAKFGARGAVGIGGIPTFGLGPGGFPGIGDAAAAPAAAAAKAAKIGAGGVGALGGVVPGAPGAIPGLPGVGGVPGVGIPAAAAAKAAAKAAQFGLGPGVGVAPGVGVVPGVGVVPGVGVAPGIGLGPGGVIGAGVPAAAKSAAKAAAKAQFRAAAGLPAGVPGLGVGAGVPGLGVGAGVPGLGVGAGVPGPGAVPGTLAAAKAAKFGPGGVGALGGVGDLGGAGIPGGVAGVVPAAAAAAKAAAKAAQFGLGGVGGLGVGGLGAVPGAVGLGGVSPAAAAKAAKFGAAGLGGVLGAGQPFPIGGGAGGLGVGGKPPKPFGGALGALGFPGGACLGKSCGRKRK
The data set is described as follows: ECM specificity binding test, elastin coating. The note with it: 5.0 mg/ml peptide, FIG. 4. More on the design: species or system bovine. As for the experimental part: (§1) Peptides were incubated 24 hours at 37° C. on collagens I-IV, elastin, hyaluronic acid, and Geltrex. Coatings (10 pig/cm^2) were previously dried overnight in milli-Q water. Overall significance was assessed using analysis of variance, with Tukey's multiple comparison post-hoc analysis between ECM groups where n=4.
(§2) Biotinylated peptides were custom synthesized by ABI Scientific, Inc. (Sterling, VA). Uranyl acetate and TEM grids were from Ted Pella, Inc (Redding, CA). Unless specified otherwise, all water used in these experiments was Milli-Q grade. HA (˜1 MDa), collagen types I (rat), II (chicken), III (human), and IV (mouse), elastin (bovine), deuterium oxide (D2O), acetic acid-d4, sodium acetate-d3, 3-(Trimethylsilyl)propionic-2,2,3,3-d6 (DSS-D6) acid sodium salt, and 2,2,2-trifluoroethanol (TFE) and were obtained from Sigma-Aldrich (St. Louis, MO). Streptavidin (Alexa Fluor 488 conjugate) and Geltrex were obtained from Thermo Fisher Scientific Inc. (Waltham, MA). Sodium hyaluronate (5 and 60 KDa) was purchased from Lifecore Biomedical LLC (Chaska, MN). In reference to terminology, N and C termini is used to describe the amino terminal (N) and the carboxyl terminal (C) of the peptide. The biotinylated peptides are used in every experiment.
Hyaluronic acid, collagens I, II, III, and IV, elastin, and Geltrex were coated onto 96-well black plates (medium binding affinity) at 10 μg/cm^2 and were dried in milli-Q water at room temperature. N-termini biotinylated peptides were added to coated plates at 0, 1, 2.5, 5 and 10 mg/ml overnight at 37° C. in phosphate buffered saline (PBS), pH 7.4, after which the plates were washed three times with PBS. Fluorescent streptavidin-488 (4 μg/mL) was added to each well and incubated at 37° C. temperature for 24 hours, then thoroughly washed with PBS. The plates were read with a fluorescence microplate reader for fluorescence intensity (Ex 490 nm, Em 525 nm). All data were normalized to the background fluorescence intensity of Streptavidin-488.

Another data set has as its target T2, collagen type IV (Mus musculus, UniProt P02463+P08122).
T2 construct: purchased Sigma-Aldrich
The data set is described as follows: ECM specificity binding test, collagen type IV coating. The note with it: 5.0 mg/ml peptide, FIG. 4. As for the experimental part: as §1
as §2, with “Sodium hyaluronate (5 and 60 KDa) was purchased from Lifecore Biomedical LLC (Chaska, MN). In reference to terminology, N and C termini is used to describe the amino terminal (N) and the carboxyl terminal (C) of the peptide. The biotinylated peptides are used in every experiment.” left out
(§3) Hyaluronic acid, collagens I, II, III, and IV, elastin, and Geltrex were coated onto 96-well black plates (medium binding affinity) at 10 μg/cm^2 and were dried in milli-Q water at room temperature. […] The plates were read with a fluorescence microplate reader for fluorescence intensity (Ex 490 nm, Em 525 nm). All data were normalized to the background fluorescence intensity of Streptavidin-488.

Data set [2] has as its system extracellular matrix (ECM) components: Collagen type I, II, III and IV, elastin, hyaluronic acid and Geltrex. The data set is described as follows: ECM specificity binding test, whole panel. The note with it: 5.0 mg/ml peptide, FIG. 4.
The target in another data set is T3, collagen type I (Rattus norvegicus, UniProt P02454+P02466).
T3 construct: purchased Sigma-Aldrich
The data set is described as follows: ECM specificity binding test, collagen type I coating. The note with it: 5.0 mg/ml peptide, FIG. 4. The protocol: as §1
as §2, with “Sodium hyaluronate (5 and 60 KDa) was purchased from Lifecore Biomedical LLC (Chaska, MN). In reference to terminology, N and C termini is used to describe the amino terminal (N) and the carboxyl terminal (C) of the peptide. The biotinylated peptides are used in every experiment.” left out
as §3

The target in data set [3] is T4, collagen type III (human) (human, UniProt P02461 154-1221).
T4 construct: III (human)'; Coated and dried on plates at 10 ug/cm2; also called collagen III
T4 sequence (looked up): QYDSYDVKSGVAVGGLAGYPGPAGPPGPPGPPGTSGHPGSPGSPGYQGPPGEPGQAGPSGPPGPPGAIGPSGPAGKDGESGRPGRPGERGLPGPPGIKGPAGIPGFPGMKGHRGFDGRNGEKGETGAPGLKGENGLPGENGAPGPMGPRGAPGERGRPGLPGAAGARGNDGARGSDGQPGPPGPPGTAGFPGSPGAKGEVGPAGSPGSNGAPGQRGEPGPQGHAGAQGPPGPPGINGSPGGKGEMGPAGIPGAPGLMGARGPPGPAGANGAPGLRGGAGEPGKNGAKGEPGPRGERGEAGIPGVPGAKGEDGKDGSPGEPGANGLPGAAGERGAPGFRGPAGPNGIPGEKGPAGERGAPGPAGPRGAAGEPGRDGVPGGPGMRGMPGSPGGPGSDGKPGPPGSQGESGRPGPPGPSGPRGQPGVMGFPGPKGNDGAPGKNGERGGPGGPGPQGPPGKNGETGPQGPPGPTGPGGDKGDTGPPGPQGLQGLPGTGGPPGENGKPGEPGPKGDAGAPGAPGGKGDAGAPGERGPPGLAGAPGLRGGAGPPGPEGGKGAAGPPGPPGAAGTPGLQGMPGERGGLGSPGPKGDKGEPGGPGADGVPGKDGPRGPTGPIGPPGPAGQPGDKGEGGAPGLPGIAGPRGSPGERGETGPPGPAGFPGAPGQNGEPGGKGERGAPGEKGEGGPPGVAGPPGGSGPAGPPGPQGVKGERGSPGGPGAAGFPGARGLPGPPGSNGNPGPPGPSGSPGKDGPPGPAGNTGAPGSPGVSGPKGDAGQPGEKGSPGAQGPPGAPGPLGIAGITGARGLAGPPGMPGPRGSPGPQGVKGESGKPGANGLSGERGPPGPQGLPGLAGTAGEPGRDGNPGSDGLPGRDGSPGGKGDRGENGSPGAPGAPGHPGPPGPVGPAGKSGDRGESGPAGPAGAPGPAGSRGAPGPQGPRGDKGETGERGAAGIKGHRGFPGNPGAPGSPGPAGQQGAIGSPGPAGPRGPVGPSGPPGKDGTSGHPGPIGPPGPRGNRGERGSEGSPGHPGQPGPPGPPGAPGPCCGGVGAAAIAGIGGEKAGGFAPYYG
The data set is described as follows: plate assay: biotinylated peptide on dried ECM coating (10 ug/cm2), streptavidin-488 fluorescence. As for the experimental part: (§4) Peptides were incubated 24 hours at 37° C. on collagens I-IV, elastin, hyaluronic acid, and Geltrex. Coatings (10 pig/cm²) were previously dried overnight in milli-Q water. Overall significance was assessed using analysis of variance, with Tukey's multiple comparison post-hoc analysis between ECM groups where n=4.
(§5) N-termini biotinylated peptides were added to coated plates at 0, 1, 2.5, 5 and 10 mg/ml overnight at 37° C. in phosphate buffered saline (PBS), pH 7.4, after which the plates were washed three times with PBS. Fluorescent streptavidin-488 (4 μg/mL) was added to each well and incubated at 37° C. temperature for 24 hours, then thoroughly washed with PBS. The plates were read with a fluorescence microplate reader for fluorescence intensity (Ex 490 nm, Em 525 nm). All data were normalized to the background fluorescence intensity of Streptavidin-488.

Another data set deals with T5, elastin (bovine) (bovine, UniProt P04985 27-747, limits assumed).
T5 construct: Coated and dried on plates at 10 ug/cm2
T5 sequence (looked up): T1 sequence (P04985 27-747)
Described as above. As for the experimental part:
as §4, §5

In another data set the target is T6, collagen type I (rat) (rat, UniProt P02454 152-1207; P02466 86-1125).
T6 construct: Coated and dried on 96-well plates at 10 ug/cm2; also called collagen I
Described as above. The protocol:
as §4, §5

In the next data set the target is T7, collagen type IV (mouse) (mouse, UniProt P02463 28-1669; P08122 26-1707).
T7 construct: IV (mouse)'; Coated and dried on plates at 10 ug/cm2; also called collagen IV
T7 sequence (P02463 28-1669, chain 1 of 2): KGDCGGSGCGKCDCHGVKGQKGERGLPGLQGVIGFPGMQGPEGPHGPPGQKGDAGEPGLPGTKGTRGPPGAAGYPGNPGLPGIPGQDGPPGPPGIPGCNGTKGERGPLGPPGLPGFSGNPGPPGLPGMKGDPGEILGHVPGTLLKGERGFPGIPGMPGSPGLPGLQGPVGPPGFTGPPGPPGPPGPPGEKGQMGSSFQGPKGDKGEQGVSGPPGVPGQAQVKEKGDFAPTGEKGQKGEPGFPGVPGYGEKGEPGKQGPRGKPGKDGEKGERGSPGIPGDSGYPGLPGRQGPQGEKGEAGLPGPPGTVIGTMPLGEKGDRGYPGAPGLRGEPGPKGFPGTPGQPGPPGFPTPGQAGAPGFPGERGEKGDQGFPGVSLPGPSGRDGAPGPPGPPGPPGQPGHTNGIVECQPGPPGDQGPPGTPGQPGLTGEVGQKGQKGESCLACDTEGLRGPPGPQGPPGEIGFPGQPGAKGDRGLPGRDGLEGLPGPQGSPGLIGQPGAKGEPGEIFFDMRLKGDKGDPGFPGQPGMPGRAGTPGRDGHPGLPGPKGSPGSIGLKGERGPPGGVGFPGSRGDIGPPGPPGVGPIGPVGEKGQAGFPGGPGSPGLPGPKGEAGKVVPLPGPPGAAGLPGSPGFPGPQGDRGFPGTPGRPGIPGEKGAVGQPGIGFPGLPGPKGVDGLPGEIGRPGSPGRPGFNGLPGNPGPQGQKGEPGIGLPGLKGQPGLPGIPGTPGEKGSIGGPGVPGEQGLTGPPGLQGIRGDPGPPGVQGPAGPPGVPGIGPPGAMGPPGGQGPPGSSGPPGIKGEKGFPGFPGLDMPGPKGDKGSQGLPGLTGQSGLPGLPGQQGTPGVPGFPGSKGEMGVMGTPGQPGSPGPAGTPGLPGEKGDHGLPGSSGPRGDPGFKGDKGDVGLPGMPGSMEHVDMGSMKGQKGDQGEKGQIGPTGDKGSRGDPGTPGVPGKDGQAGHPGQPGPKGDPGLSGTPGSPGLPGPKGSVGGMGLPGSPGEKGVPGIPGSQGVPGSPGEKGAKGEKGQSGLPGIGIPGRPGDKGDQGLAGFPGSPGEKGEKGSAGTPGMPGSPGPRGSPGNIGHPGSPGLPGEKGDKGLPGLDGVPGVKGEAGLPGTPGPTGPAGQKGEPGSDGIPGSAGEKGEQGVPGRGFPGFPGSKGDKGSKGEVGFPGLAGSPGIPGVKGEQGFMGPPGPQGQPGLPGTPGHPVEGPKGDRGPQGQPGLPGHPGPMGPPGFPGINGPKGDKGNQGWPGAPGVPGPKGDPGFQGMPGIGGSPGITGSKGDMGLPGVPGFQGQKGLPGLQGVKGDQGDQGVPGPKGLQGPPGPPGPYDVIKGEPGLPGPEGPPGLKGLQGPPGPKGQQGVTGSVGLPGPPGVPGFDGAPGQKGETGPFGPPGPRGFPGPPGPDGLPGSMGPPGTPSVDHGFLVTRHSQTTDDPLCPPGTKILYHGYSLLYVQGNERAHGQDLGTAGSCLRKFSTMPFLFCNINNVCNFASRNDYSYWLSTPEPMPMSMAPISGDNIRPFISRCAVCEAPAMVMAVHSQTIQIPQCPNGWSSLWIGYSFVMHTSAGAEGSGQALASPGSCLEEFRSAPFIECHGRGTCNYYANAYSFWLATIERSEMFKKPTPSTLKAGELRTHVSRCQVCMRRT
T7 sequence (P08122 26-1707, chain 2 of 2): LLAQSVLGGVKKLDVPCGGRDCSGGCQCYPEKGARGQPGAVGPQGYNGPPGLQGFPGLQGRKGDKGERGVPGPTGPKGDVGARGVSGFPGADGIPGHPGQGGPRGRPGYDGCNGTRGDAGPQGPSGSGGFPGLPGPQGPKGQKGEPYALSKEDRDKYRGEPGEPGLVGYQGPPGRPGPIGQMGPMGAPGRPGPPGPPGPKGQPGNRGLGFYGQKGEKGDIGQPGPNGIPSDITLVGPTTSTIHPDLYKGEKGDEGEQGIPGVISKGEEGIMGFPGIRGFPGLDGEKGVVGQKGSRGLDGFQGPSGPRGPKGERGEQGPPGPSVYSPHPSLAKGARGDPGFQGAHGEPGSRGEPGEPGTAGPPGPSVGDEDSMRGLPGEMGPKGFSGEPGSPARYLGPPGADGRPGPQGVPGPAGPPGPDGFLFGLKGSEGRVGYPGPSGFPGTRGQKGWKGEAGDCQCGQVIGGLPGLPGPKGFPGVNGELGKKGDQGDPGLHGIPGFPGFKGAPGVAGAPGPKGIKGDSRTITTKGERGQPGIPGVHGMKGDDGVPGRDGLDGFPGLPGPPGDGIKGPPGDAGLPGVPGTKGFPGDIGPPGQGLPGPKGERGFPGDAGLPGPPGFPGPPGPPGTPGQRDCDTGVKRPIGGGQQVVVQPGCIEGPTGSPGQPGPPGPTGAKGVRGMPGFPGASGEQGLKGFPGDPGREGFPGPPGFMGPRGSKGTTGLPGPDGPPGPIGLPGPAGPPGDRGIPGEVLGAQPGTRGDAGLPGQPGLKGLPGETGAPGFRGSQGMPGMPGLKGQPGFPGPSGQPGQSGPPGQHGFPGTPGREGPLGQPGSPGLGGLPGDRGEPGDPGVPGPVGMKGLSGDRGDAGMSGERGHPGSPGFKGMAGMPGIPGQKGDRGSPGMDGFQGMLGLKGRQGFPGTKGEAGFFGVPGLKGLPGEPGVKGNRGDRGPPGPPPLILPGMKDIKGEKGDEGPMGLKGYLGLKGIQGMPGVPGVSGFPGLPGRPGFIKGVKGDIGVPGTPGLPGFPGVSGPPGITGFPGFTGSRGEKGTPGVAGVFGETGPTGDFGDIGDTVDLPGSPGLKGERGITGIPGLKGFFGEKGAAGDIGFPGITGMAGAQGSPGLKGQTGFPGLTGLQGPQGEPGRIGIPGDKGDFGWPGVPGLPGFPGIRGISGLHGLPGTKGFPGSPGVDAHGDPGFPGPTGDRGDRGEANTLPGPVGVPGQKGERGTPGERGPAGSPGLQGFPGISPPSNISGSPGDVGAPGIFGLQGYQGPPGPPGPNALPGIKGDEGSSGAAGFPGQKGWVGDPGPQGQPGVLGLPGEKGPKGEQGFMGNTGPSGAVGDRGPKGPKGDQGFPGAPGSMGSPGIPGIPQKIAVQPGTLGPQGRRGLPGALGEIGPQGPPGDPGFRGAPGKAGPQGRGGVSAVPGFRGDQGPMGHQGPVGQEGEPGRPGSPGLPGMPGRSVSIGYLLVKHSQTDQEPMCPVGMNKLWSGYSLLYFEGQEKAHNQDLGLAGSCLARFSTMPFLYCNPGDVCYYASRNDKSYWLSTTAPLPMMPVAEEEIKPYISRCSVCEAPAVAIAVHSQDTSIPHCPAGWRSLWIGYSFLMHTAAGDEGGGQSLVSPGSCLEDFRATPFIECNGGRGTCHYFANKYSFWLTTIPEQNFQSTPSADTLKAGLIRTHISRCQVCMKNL
The data set is described as above. The protocol: as §4, §5

The results in this text go back to patent US20250026792A1, “SELF-ASSEMBLING PEPTIDES WITH HYALURONIC ACID BINDING DOMAINS AND METHODS OF USE THEREOF” (Northwestern University, priority 2022, published 2025).

The star is where a group is joined. Biotin = O=C1N[C@H]2[C@H](CS[C@H]2CCCCC(=O)*)N1

As to “KTKATVKIKNKQKSVNALKQKIVLLSK [Peptide 7c, 17x-3 variant]”, in data set [1], the “Ellipticity ratio (222 nm/208 nm)” value is on record as 0.46, the “Ellipticity 208 nm” value is −131, the “Ellipticity 222 nm” value is −60.9 and the “wavelength Minimum of CD profile” value stood at 225 nm. For the same molecule, in data set [1] (20% TFE), the “Ellipticity ratio (222 nm/208 nm)” value came to 0.89, the “Ellipticity 208 nm” value is reported as −290, the “Ellipticity 222 nm” value is listed as −259 and the “wavelength Minimum of CD profile” value was determined as 224 nm. Moreover, in the data set with elastin, the binding to elastin result was “predominantly”. Besides, the “binding to collagen type IV” value in the data set with collagen type IV was “predominantly”. Further, in data set [2], the “binding to the ECMs (for 17x-3: the ECMs other than hyaluronic acid)” value is reported as “moderate binding”. Also, in the data set with collagen type I, the “binding to collagen type I” value is on record as “predominantly”.

B1: Peptide BHP3 (peptide)
peptide: Biotin-TQLRNKYTFLARARNALAVRTKQNIKS-OH
SMILES: CC[C@H](C)[C@H](NC(=O)[C@H](CC(N)=O)NC(=O)[C@H](CCC(N)=O)NC(=O)[C@H](CCCCN)NC(=O)[C@@H](NC(=O)[C@H](CCCNC(=N)N)NC(=O)[C@@H](NC(=O)[C@H](C)NC(=O)[C@H](CC(C)C)NC(=O)[C@H](C)NC(=O)[C@H](CC(N)=O)NC(=O)[C@H](CCCNC(=N)N)NC(=O)[C@H](C)NC(=O)[C@H](CCCNC(=N)N)NC(=O)[C@H](C)NC(=O)[C@H](CC(C)C)NC(=O)[C@H](Cc1ccccc1)NC(=O)[C@@H](NC(=O)[C@H](Cc1ccc(O)cc1)NC(=O)[C@H](CCCCN)NC(=O)[C@H](CC(N)=O)NC(=O)[C@H](CCCNC(=N)N)NC(=O)[C@H](CC(C)C)NC(=O)[C@H](CCC(N)=O)NC(=O)[C@@H](NC(=O)CCCC[C@@H]1SC[C@@H]2NC(=O)N[C@@H]21)[C@@H](C)O)[C@@H](C)O)C(C)C)[C@@H](C)O)C(=O)N[C@@H](CCCCN)C(=O)N[C@@H](CO)C(=O)O
notes: Designed from the 42 residue peptide BH-P; biotinylated synthetic peptide
Turning to B1, the binding result (in data set [3]; in the data set with elastin (bovine); in the data set with collagen type I (rat); with collagen type IV (mouse)) was “no binding (tested: 5.0 mg/ml)” each time.

B2: Peptide 17x-3 (peptide)
peptide: Biotin-KTKATVLIKNKQKSKNALKQKIVLLSK-OH
SMILES: CC[C@H](C)[C@H](NC(=O)[C@H](CC(C)C)NC(=O)[C@@H](NC(=O)[C@@H](NC(=O)[C@H](C)NC(=O)[C@H](CCCCN)NC(=O)[C@@H](NC(=O)[C@H](CCCCN)NC(=O)CCCC[C@@H]1SC[C@@H]2NC(=O)N[C@@H]21)[C@@H](C)O)[C@@H](C)O)C(C)C)C(=O)N[C@@H](CCCCN)C(=O)N[C@@H](CC(N)=O)C(=O)N[C@@H](CCCCN)C(=O)N[C@@H](CCC(N)=O)C(=O)N[C@@H](CCCCN)C(=O)N[C@@H](CO)C(=O)N[C@@H](CCCCN)C(=O)N[C@@H](CC(N)=O)C(=O)N[C@@H](C)C(=O)N[C@@H](CC(C)C)C(=O)N[C@@H](CCCCN)C(=O)N[C@@H](CCC(N)=O)C(=O)N[C@@H](CCCCN)C(=O)N[C@H](C(=O)N[C@H](C(=O)N[C@@H](CC(C)C)C(=O)N[C@@H](CC(C)C)C(=O)N[C@@H](CO)C(=O)N[C@@H](CCCCN)C(=O)O)C(C)C)[C@@H](C)CC
notes: De novo designed 27-residue peptide, custom synthesized; the biotinylated peptides are used in every experiment; Self-assembles at higher concentrations
Consider B2, for which the binding result (in data set [3]; in the data set with elastin (bovine); with collagen type I (rat); with collagen type IV (mouse)) was “no binding (tested: 5.0 mg/ml)” in each case.
